Measured values from patent publication US20190248882A1 (published 2019).

B1: ANG-2 (ligand)
chain: DAPLEYDDSVQRLQVLENIMENNTQWLMKLENYIQDNMKKEMVEIQQNAVQNQTAVMIEIGTNLLNQTAEQTRKLTDVEAQVLNQTTRLELQLLEHSLSTNKLEKQILDQTSEINKLQDKNSFLEKKVLAMEDKHIIQLQSIKEEKDQLQVLVSKQNSIIEELEKKIVTATVNNSVLQKQQHDLMETVNNLLTMMSTSNSAKDPTVAKEEQISFRDCAEVFKSGHTTNGIYTLTFPNSTEEIKAYCDMEAGGGGWTIIQRREDGSVDFQRTWKEYKVGFGNPSGEYWLGNEFVSQLTNQQRYVLKIHLKDWEGNEAYSLYEHFYLSSEELNYRIHLKGLTGTAGKISSISQPGNDFSTKDGDNDKCICKCSQMLTGGWWFDACGPSNLNGMYYPQRQNTNKFNGIKWYYWKGSGYSLKATTMMIRPADF
modifications: biotinylated in the Tie-2 competition ELISA (site not stated)
B2: A33A8 human anti-ANG-2 HCAb (antibody, V domains shown)
VH: QVQLVESGGGLVQPGGSLRLSCAASGFTFSSYWMHWVRQAPGKGLVWVSRINSDGSSTSYADSVKGRFTISRDNAKNTLYLQMNSLRAEDTAVYYCAREGYSSGGQFDYWGQGTLVTVSS

Assays:
A33A8 VH = assay: BLI (Octet); VH domain alone
[1] = biological target: T1, human ANG-2 (R&D Systems) (UniProt O15123 68-496, biotinylated in the Tie-2 competition ELISA (site not stated)); assay: inhibition of ANG-2 binding to Tie-2 on HEK293 cells
T1 chain: B1 chain

Binder | Kd (A33A8 VH) | IC50 [1]
B1 | < 0.001 nM | –
B2 | – | 0.295 nM
